Numbering of substitutions follows the chain as printed.
Biological target: the molecule itself
Experiment: crystal structure; TelA-DNA complexes (equal moles of protein monomer and DNA half-site), hanging drop vapor diffusion at 20°C, 5% PEG 4000, 10 mM Tris-HCl pH 7.4, 300 mM NaCl; one TelA per asymmetric unit, the dimer is generated by the crystallographic dyad; TelA is bound to DNA

B1: Selenomethionine-labeled TelA (enzyme, Agrobacterium tumefaciens C58, UniProt Q7CWV1 1-442, looked up)
chain: MLAAKRKTKTPVLVERIDQFVGQIKEAMKSDDASRNRKIRDLWDAEVRYHFDNGRTEKTLELYIMKYRNALKAEFGPKSTPLAICNMKKLRERLNTYIARGDYPKTGVATSIVEKIERAEFNTAGRKPTVLLRIADFIAAMNGMDAKQDMQALWDAEIAIMNGRAQTTIISYITKYRNAIREAFGDDHPMLKIATGDAAMYDEARRVKMEKIANKHGALITFENYRQVLKICEDCLKSSDPLMIGIGLIGMTGRRPYEVFTQAEFSPAPYGKGVSKWSILFNGQAKTKQGEGTKFGITYEIPVLTRSETVLAAYKRLRESGQGKLWHGMSIDDFSSETRLLLRDTVFNLFEDVWPKEELPKPYGLRHLYAEVAYHNFAPPHVTKNSYFAAILGHNNNDLETSLSYMTYTLPEDRDNALARLKRTNERTLQQMATIAPVSRKG
modifications: selenomethionine-labeled (eleven selenium sites per TelA monomer located)
notes: Protelomerase TelA, Agrobacterium tumefaciens C58, gene locus Atu_2523, full-length 442 residues; model covers residues 102-421; Phosphotyrosine complex trapped with the nicked suicide substrate DNAc; used for SAD phasing; also called SeMet-TelA; source: E. coli methionine auxotroph strain B834(DE3), selenomethionine-labeled; not shown: His-tag (20 residues), N-terminal, kept
- stoichiometry N: 2

B2: TelA R255A (enzyme)
chain: B1 chain with R255A
notes: source: E. coli BL21, pBAD promoter, purified (Ni-NTA, Heparin-Sepharose)
- stoichiometry N: 2

B3: TelA Y201A (enzyme)
chain: B1 chain with Y201A
notes: Crystallised with DNAb; source: E. coli BL21, pBAD promoter, purified (Ni-NTA, Heparin-Sepharose)
- stoichiometry N: 2

B4: TelA, protelomerase from Agrobacterium tumefaciens C58, wild type (enzyme, UniProt Q7CWV1 1-442, looked up)
chain: B1 chain
notes: Protelomerase TelA, Agrobacterium tumefaciens C58, gene locus Atu_2523, full-length 442 residues; residues 102-421 ordered in the crystal models; In 4E0P and 4E0Y Tyr405 is joined to the cleaved DNA by a phosphotyrosine bond; in 4E0G orthovanadate bridges Tyr405 and the DNA ends; also called telomere resolvase; wild-type TelA; source: E. coli BL21, pBAD promoter, purified (Ni-NTA, …)
- stoichiometry N: 2

B5: TelA R205A (enzyme)
chain: B1 chain with R205A
notes: Crystallised with DNAb6; source: E. coli BL21, pBAD promoter, purified (Ni-NTA, Heparin-Sepharose)
- stoichiometry N: 2
